Data as given in the DeepSol protein solubility set.

Experiment: soluble on expression in E. coli; label from the status in PepcDB or PDB records

Q: Which “soluble on expression in E. coli” value does the source give for “MSLKLTGEESDTLRKIVLEECLPNQQQNQNPSPCAEVKPNAGYVVLKDLNGPLQYLLMPTYRINGTESPLLTDPSTPNFFWLAWQARDFMSKKYGQPVPDRAVSLAINSRTGHTQNHFHIHISCIRPDVREQLDKNLANISSRWLPLPGGLRGHEYLARRVTESELVQRSPFMMLAEEVPEAREHMGSYGLAMVRQSDNSFVLLATQRNLLTLNRASAEEIQDHECEILREGHHHHHH” here?
A: Its value is “soluble”.

Q: With “MSLKLYKEIINLIDNHQATMVEQLHQFCEINSGTTNLTGLAIMAETLCSAFKPIADTTELITLPPLSVIDMTGNTVMQSCGDVLFISKRPHLKRRILLSGHMDTVYSASNPFQKLSYLDANQINGPGVADMKGGLIVILHALAAFENTRFAEDMGWDVLINSDEEIGSPTSGSLFNKLAHRYQAALVYEPAMTPNGTLAKNRKGSGKLTLVATGRAAHAGRAFDEGRNAICYLAEAITAVHALNGQKNGVTINVGKIAGGEALNVVPDKAVAQLDIRISLPEDEIWVRNELNKIIKQLERPDYSLNVHGTFGRPVKRICAGTERLFHRIQKIGEALGLTIDWKDSGGCCDGNNLAHYGLPVLDTLGVRGGNIHSSDEYILLDSLSERAALSALLLIDLAQGGLEDLIKEGHHHHHH” as the sequence, how does the “soluble on expression in E. coli” value read?
A: Its value is “soluble”.

Q: With “MSLKMRVYYEDTDAGGVVYHSNYLKFCERARSEIFFNKKVDIFDASKGHFLLAKANCNFLKPAKLGDMIEIKTKILEVKNASVEILQEIYKDEILLFKMELTLAFIKNEKPARMDMQLKKLFEELFEGGSHHHHHH” as the sequence, how does the “soluble on expression in E. coli” value read?
A: Its value is “soluble”.

Q: Which “soluble on expression in E. coli” value does the source give for “MSLKNDVSPLEIKVIDENSEQYGISKETLMENAGRAVYEEIVNLNVDFSKTYLFCGTGNNGGDGFVIARHLANNFATFVVLIGNERKIKTSETQRNFNTVKNMEFFGNLDYANILDDERAVELLKTIEKELENKQNDHILIIDAMLGTGITGILKNPYSTIVDYLNVLKSKYSKKLKMVSVDIQTGNLNADLEVILHKRKFENKNKNFVVKDIGIPKYIENMVGKGDFYLLNERKQNSHKGQNGNVLVIGGSKEYHGAPVFSALAASKFADIVTVASVSNVMNTVSNYPELMPYELTGDYIVQNHVDELLELSKNYDCVVLGSGISVNSDTKEFVNSYLNETNGKVVIDADAIKLIDYSNFKFKNNFIFTPHKKEFEYIENYIESSGFKSTVVLKGSLDIIFNSNNIKMNITGNQGMTVGGTGDILCGIIGAIYACNDAFPSACCGTYINGYCGDLLEKEYGYYYNSTDIIKILPKALKELLYEGHHHHHH” here?
A: The value was “soluble”.

Q: For “MSLKNEKQDITLWIAPNNVQEAFWSEVVGEWNKQPDKKKVVFSTIPAAGSSEEAIMNAIASDRAPDISENIFTGFGSQLADLGQVVDLSTLDGYENLISTRQMTDIMDNWRYNGKNYILPIYMNPVLFWWRGDLLKEQGFSEVPKTYDEVYALSEKYTIPDKRYAIQATSGRNWWDRWFDFIALYYAQSDGKPYIANQQASYDNQAGRDVLDFMHTLFSKKWTLYDFGQDDPLVTGKVLGAVRGPWDISRYQQQYPEILKHIKMGPMLVKEQQDKPHTFADGKGLVLFSHSKVKPEAWEFIQWVFSQPKFDKRWMELTGMPPARADLLTNPFFAEYYQEHPYAAAYAEYVNVAIPPVSSGETVEIQRSMTQMIEKTAFNTSTPDEALQQSIKEVNAILKEGHHHHHH”, which “soluble on expression in E. coli” value is on record?
A: Its value is “soluble”.

Q: For “MSLKNTLILGIESSCDETAASVVKNGNEIISSVVASQIESHKRFGGVVPEIASRHHVEQITLVIEEALKQANVTMDDLDGVAVTEGPGLVGALLIGVNAAKTLAFMHNLPLVGVHHIAGHIYANRFETEFKFPLLSLVVSGGHTELVLMKADNEFEIIGETRDDAAGEAYDKVARTLGLAYPGGVQIDKLAKDGEDTFHFPRAMMDEGSFDFSFSGLKSSFINTLHNLRQRGEEPNPNDMAASFQASVVDVLVSKTIRAAKQYDVKQLLLAGGVAANQGLRERLIQEVKLELPETELIIPPLALCGDNAAMIAAAGTVSFLQGKRSGFDMNANPGLLLEDIEGHHHHHH”, which “soluble on expression in E. coli” value is on record?
A: Its value is “soluble”.

Q: Which “soluble on expression in E. coli” value does the source give for “MSLKPRACVVVYPGSNCDRDAYHALEINGFEPSYVGLDDKLDDYELIILPGGFSYGDYLRPGAVAAREKIAFEIAKAAERGKLIMGICNGFQILIEMGLLKGALLQNSSGKFICKWVDLIVENNDTPFTNAFEKGEKIRIPIAHGFGRYVKIDDVNVVLRYVKDVNGSDERIAGVLNESGNVFGLMPHPERAVEELIGGEDGKKVFQSILNYLKREGGSHHHHHH” here?
A: The value was “soluble”.

Q: With “MSLKPSDAEEARTEAFLVKLREFLDTVDGSVIERAAQIPDEYVKGLAELGCFGLKIPSEYGGLNMSQVAYNRVLMMVTTVHSSLGALLSAHQSIGVPEPLKLAGTAEQKRRFLPRCAAGAISAFLLTEPDVGSDPARMASTATPIDDGQAYELEGVKLWTTNGVVADLLVVMARVPRSEGHRGGISAFVVEADSPGITVERRNKFMGLRGIENGVTRLHRVRVPKDNLIGREGDGLKIALTTLNAGRLSLPAIATGVAKQALKIAREWSVERVQWGKPVGQHEAVASKISFIAATNYALDAVVELSSQMADEGRNDIRIEAALAKLWSSEMACLVGDELLQIRGGRGYETAESLAARGERAVPVEQMVRDLRINRIFEGSSEIMRLLIAREAVDAHLTAAGDLANPKADLRQKAAAAAGASGFYAKWLPKLVFGEGQLPTTYREFGALATHLRFVERSSRKLARNTFYGMARWQASLEKKQGFLGRIVDIGAELFAISAACVRAEAQRTADPVEGEQAYELAEAFCQQATLRVEALFDALWSNTDSIDVRLANDVLEGRYTWLEQGEGHHHHHH” as the sequence, how does the “soluble on expression in E. coli” value read?
A: Its value is “not soluble”.

Q: For “MSLKPVMIIQFSASEGPGHFGDFLAGEHIPFQVLRMDRSDPLPAEIRDCSGLAMMGGPMSANDDLPWMPTLLALIRDAVAQRVPVIGHCLGGQLLAKAMGGEVTDSPHAEIGWVRAWPQHVPQALEWLGTWDELELFEWHYQTFSIPPGAVHILRSEHCANQAYVLDDLHIGFQCHIEMQAHMVREWCSISPEELKGGAEADEGHHHHHH”, which “soluble on expression in E. coli” value is on record?
A: The value was “not soluble”.

Q: For “MSLKQERQEKIEVLKEFKDDGATKFSSYYFDLKKNQILSSGSLTTSWRVIDFSEVLSYQVNRNGHLEQKHHGIARAVTGGIMAGGVGAIVGTTTGENTDYIDHLGLVINLSDGTNFEVKFLKTKTKTNSFTVKTAEGELRSLISIVQSGMNKAQEKAEQEQTKANTIKIESNADPAEEIRKFKKMADEGIISNEEFEAKKKQLLNLQEGHHHHHH”, which “soluble on expression in E. coli” value is on record?
A: Its value is “soluble”.

Q: Which “soluble on expression in E. coli” value does the source give for “MSLKRAEPQSLQVSQNELQAMAYSDPLTGLGNRYRLRDKIRMLASERSSDPAPFTVGIANIDGFKPINDLFGVQAGDEILCQVAHRLKACIPDGAIVTRHDGDEFAFVLPLIFERIGAERIGNMIKDVLSAPYDLGDRNVRLSSSFGFAIYPFAGDEYEDLLKSAETALYRSKRRGRGQITVYSREIAQEMKRATQLEQALRNAIITDAIDVHFQPIVRLEEAKVIGFEALARWNDPDLGFVSPAVFVPLAEERGFIDALSEALLRKAAEAALFWPRELFLSFNLSSAQLMDPSTSDNILSILSRVGLDPHRLELEITETAVMTSADTAQRIISELQSAGVRISLDDFGTGQSSLGRLRDFTFDKVKIDRAFVSRISSDRPSEHIIKAIVAMCEGLDLEVVAEGIEERVEEEKLRALGCAMGQGYFYGRPVDAAATQRYLHENYREILSDISEGHHHHHH” here?
A: Its value is “soluble”.

Q: With “MSLKREEICRLLADKVNKLKNKENSLSELLPDVRLLYGETPFARTPVMYEPGIIILFSGHKIGYINERVFRYDANEYLLLTVPLPFECETYATSEVPLAGLRLNVDILQLQELLMDEGHHHHHH” as the sequence, how does the “soluble on expression in E. coli” value read?
A: The value was “not soluble”.

Q: Which “soluble on expression in E. coli” value does the source give for “MSLKSVIVPAPGKIEIREVETPVINAYQALVKTEMVALCNATDSKLIAGHFPGVDTYPLALGHENAGIVVAVGEKVRNFKVGDRAIGGLISDFGAQGINSGWGGFSEYVVVNDFEVLKEEGLATPEQGCWDSFEIQNSVPAHVQPEEAVISCTWREVLGAFKDFNLTPGKKVIVVGSGPVGLSFVKLGKLFGLGQIDIVDMLPAKLEVARRMGADNGYTPAEISTPEFIAAAGRSYDAVIDAVGLDVVVNSVLPLVKMGGDVCVYGVMTKNPTFDLSKAPYNFDLHMHQWPTRSEEKAAMTTLAQWIEEGTLSASDFITHRFKIEEIEEAFAAVKRGEVLKCVLTEGHHHHHH” here?
A: The value was “not soluble”.

Q: Which “soluble on expression in E. coli” value does the source give for “MSLKTIAINQYGSADEFTMVDMPTTEPQADEVQVAIHAFSLNPMDIAGRMGALSSPFTDLWAFPLVLGWDFAGVITKMGKAVTGFNIGDAVFGSAAPAHAANNGTYGEFITVNTKELAHLPAGLSFDQAAALPIAGLTAYYGMKHNLKLQSGQKILVQGGAGGVGLFAIQIAKAFGAYVATTASANHRDLLTRLGADEVIDYHETDPAAVLHDYDAVFDTVGDIDTGLKVLKADGQLATIAGQPTDEQQHDQQKKVAFQFTQGSSQDLADLAQLVVSGQVKLTVATLPFSVANVIKGHRSIESRHTTGKIVIHVTEGHHHHHH” here?
A: Its value is “not soluble”.
